Experimental data taken from paper PMC9238363.
Read-outs that look alike come from different tables or passages of the source.

B1: RBD-Ap-1 (structured_DNA)
DNA: CAGCACCGACCTTGTGCTTTGGGAGTGCTGGTCCAAGGGCGTTAATGGACA
B2: N-Ap (structured_DNA)
DNA: GCTGGATGTCACCGGATTGTCGGACATCGGATTGTCTGAGTCATATGACACATCCAGC

Legend:
Test in all cases: ELISA
[1] = biological target: T1, Spike S2 (SARS-CoV-2, UniProt P0DTC2 686-1213)
[2] = biological target: Nucleocapsid-His (SARS-CoV-2, UniProt P0DTC9 1-419)
[3] = biological target: T1, Spike S2; remark: listed apart in the source
[4] = biological target: Spike S1-His (SARS-CoV-2, UniProt P0DTC2 14-685)

Row | Binder | binding result [1] | binding result [2] | binding result [3] | binding result [4]
1 | B1 | no binding | – | – | –
2 | CGCAGCACCCAAGAACAAGGACTGCTTAGGATTGCGATAGGTTCGG (structured_DNA) [RBD-Ap-2] | no binding | no binding | – | –
3 | B2 | – | – | no binding | no binding
